Target: T1, SLITRK6 (SLIT and NTRK-like family, member 6) (human, UniProt Q9H5Y7 27-841)
T1 construct: whole, on cells; Endogenous SLITRK6 at the membrane of A375 BRAF-mutant melanoma cells after treatment with PLX4032, alone or with AZD6244; also called DFNMYP
T1 sequence (looked up): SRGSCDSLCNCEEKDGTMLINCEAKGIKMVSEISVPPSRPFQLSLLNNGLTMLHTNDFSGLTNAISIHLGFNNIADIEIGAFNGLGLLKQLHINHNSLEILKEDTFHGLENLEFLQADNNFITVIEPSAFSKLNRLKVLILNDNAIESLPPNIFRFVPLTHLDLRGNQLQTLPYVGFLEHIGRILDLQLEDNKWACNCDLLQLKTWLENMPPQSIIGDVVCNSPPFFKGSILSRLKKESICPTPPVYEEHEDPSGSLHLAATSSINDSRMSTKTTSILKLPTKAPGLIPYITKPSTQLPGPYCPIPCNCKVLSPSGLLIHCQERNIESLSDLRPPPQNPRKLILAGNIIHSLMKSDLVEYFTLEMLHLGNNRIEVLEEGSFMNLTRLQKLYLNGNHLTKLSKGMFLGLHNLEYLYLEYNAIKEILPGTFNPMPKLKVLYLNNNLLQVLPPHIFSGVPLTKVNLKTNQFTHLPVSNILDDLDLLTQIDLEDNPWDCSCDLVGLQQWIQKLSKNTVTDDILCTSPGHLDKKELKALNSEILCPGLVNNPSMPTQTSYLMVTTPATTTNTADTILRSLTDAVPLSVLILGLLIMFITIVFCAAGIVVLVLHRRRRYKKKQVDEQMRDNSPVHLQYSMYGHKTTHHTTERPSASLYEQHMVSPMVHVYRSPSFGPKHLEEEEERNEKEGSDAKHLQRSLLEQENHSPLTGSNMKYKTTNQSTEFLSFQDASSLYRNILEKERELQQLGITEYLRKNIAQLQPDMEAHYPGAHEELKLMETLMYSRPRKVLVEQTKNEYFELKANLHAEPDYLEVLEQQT
Assay: immunofluorescence staining of A375 cells (si-Ctl or si-SLITRK6) treated with PLX4032 alone or with AZD6244

B1: Hal5-10acl2 antibody directed against SLITRK6 (antibody, V domains shown)
VH: QVQLVESGGGVVQPGRSLRLSCAASGFTFSSYGMHWVRQAPGKGLEWVAVIWYDGSNQYYADSVKGRFTISRDNSKNTLFLQMHSLRAEDTAVYYCARGLTSGRYGMDVWGQGTTVTVSS
VL: DIVMTQSPLSLPVTPGEPASISCRSSQSLLLSHGFNYLDWYLQKPGQSPQLLIYLGSSRASGVPDRFSGSGSGTDFTLKISRVEAEDVGLYYCMQPLQIPWTFGQGTKVEIKR
notes: It is produced by a CHO cell deposited as ATCC PTA-13102; also called HA15-10acl2; the antibody against SLITRK6
  binding result: binds

Reference: patent US20190365920A1 (INSERM INSTITUT NATIONAL DE LA SANT ET DE LA RECHERCHE …, published 2019)
